US20110287963A1

Legend:
[1] = biological target: GCN4 leucine zipper (wild-type) fused to the α fragment of β-lactamase (E. coli (plasmid pBR322)) (UniProt P03069); assay: cell-based or functional assay
[2] = biological target: GCN4-PP, double proline mutant of the GCN4 leucine zipper, fused to the α fragment of β-lactamase (E. coli (plasmid pBR322)) (UniProt P03069); assay: cell-based or functional assay

With “scFv-GCN4 fused to the ω fragment of β-lactamase (pDMB-P1-ωBLA construct)” the MBC (minimum bacteriocidal concentration) on ampicillin, fold over the α-Jun negative control [1] was 2 fold and the MBC (minimum bacteriocidal concentration) on ampicillin, fold over the α-Jun negative control [2] was 16 fold.
